Assay results as given in patent publication US20100098683A1 (Dana-Farber, published 2010).

Target: T1, hFc-MUC1-C/ED (MUC1-C extracellular domain fused to human Fc) (human, UniProt P15941 1098-1155, secreted from CHO-K1 cells; the filing reports N-linked glycosylation of MUC1-C at Asn-36)
T1 construct: Purified on protein A; also called hFc-MUC1-C extracellular domain; not shown: human Fc fragment (hFc) amplified from the CD5-IgG1 plasmid (Aruffo et al., 1990)
T1 sequence: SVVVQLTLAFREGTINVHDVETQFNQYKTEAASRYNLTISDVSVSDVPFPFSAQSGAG
Test: SPR (BIACORE 3000, 25 C), galectin-3(63-250) amine-coupled to a CM5 chip, hFc-MUC1-C/ED injected at 0-100 nM, 1:1 binding with drifting baseline; galectin-3(63-250), CRD fragment

B1: galectin-3(63-250) (ligand)
chain: YHGAPGAYPGAPAPGVYPGPPSGPGAYPSSGQPSAPGAYPATGPYGAPAGPLIVPYNLPLPGGVVPRMLITILGTVKPNANRIALDFQRGNDVAFHFNPRFNENNRRVIVCNTKLDNNWGREERQSVFPFESGKPFKIQVLVEPDHFKVAVNDAHLLQYNHRVKKLNEISKLGISGDIDLTSASYTMI
notes: Fragment that contains the CRD, purified from E. coli and coupled to a CM5 chip
Kd: 9.8 nM
